Reference: FireProtDB (doi:10.1021/bi050342n)

Conditions: Pseudomonas aeruginosa (strain ATCC 15692 / DSM 22644 / CIP 104116 / JCM 14847 / LMG 12228 / 1C / PRS 101 / PAO1); pH 7; 25 °C; GdnHCl; Fluorescence, CD; Tris-HCl 100 mM; reversible: Yes; whole UniProt chain shown

B1: Azurin wild type, P00282 (protein)
chain: MLRKLAAVSLLSLLSAPLLAAECSVDIQGNDQMQFNTNAITVDKSCKQFTVNLSHPGNLPKNVMGHNWVLSTAADMQGVVTDGMASGLDKDYLKPDDSRVIAHTKLIGSGEKDSVTFDVSKLKEGEQYMFFCTFPGHSALMKGTLTLK
denaturant m value: 4.06 kcal/mol/M
unfolding free energy: 12.9 kcal/mol
